This test addresses GST-(PreScission site)-CYK-4 aa 146–190, phosphorylated by PLK-1 (C. elegans). As to the kind of experiment: pull-down.

In turn, “ECT-2 aa 1–320 (ECT-2 BRCT module) (domain or fragment)” came in with a fold increase in binding against the unphosphorylated WT CYK-4 fragment of 4 fold.

Source of the values: publication PMC7438317.
